Data from the supplement of paper PMC12855868.

B1: library; numbered along this chain (parent)
chain: MAAAGGARLLRAASAVLGGPAGRWLHHAGSRAGSSGLLRNRGPGGSAEASRSLSVSARARSSSEDKITVHFINRDGETLTTKGKVGDSLLDVVVENNLDIDGFGACEGTLACSTCHLIFEDHIYEKLDAITDEENDMLDLAYGLTDRSRLGCQICLTKSMDNMTVRVPETVADARQSIDVGKTS

Variants of: B1
Assay: scaled log2 fold change in cell abundance, elesclomol vs control (0 = silent mean, 1 = nonsense mean) (scaled log2 ratio); higher = higher viability under elesclomol (loss of FDX1 cuproptosis function)
Settings: glucose 10 mM
[1] = with ABC1 FDX1 KO, elesclomol 5 nM, 14 days
[2] = with HEK293T FDX1 KO, elesclomol 40 nM, 11 days
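Further: variant abundance is its share of total variant reads in each endpoint sample, from next-generation sequencing of the integrated ORF PCR-amplified out of genomic DNA.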

| Variant | scaled log2 fold change [1] | scaled log2 fold change [2] |
| --- | --- | --- |
| G108A | 0.21 | 1.08 |
| G108C | 1.05 | 0.472 |
| G108I | 1.05 | 1.37 |
| G108F | 1.12 | 0.938 |
| G108H | 0.742 | 0.224 |
| G108E | 1.01 | 0.92 |
| G108L | 1.02 | 1.11 |
| G108K | 0.467 | 0.101 |
| G108D | 0.898 | 0.446 |
| G108M | 0.834 | 0.77 |
| N97L | -0.931 | – |
| N97D | 0.0523 | -0.622 |
| N97Y | -0.364 | -0.135 |
| N97I | 0.125 | -0.93 |
| N97T | -0.0494 | 0.415 |
| N97A | 0.142 | 0.975 |
| N97W | 0.133 | -0.218 |
| N97M | 0.195 | -0.11 |
| N97F | 0.103 | -0.943 |
| N97E | -0.211 | -1.28 |
| N97K | 0.149 | 0.739 |
| N97G | 0.132 | -0.242 |
| N97Q | -0.273 | 0.204 |
| N97V | -0.176 | -0.221 |

| Variant | scaled log2 fold change [1] | scaled log2 fold change [2] |
| --- | --- | --- |
| N97C | -0.382 | -0.308 |
| N97H | -0.355 | -0.619 |
| N97R | -0.00904 | – |
| N97S | -0.104 | 0.254 |
| N97P | -0.344 | -0.674 |
| D101C | -0.242 | 0.242 |
| D101Q | 0.0405 | -0.42 |
| D101G | 0.085 | -0.787 |
| D101R | 0.0225 | -0.328 |
| D101H | -0.018 | -0.455 |
| D101P | -0.357 | -0.96 |
| D101T | -0.218 | -0.744 |
| D101M | 0.241 | 0.684 |
| D101L | -0.471 | -0.161 |
| D101V | 0.24 | -0.613 |
| D101E | 0.0987 | -0.481 |
| D101S | -0.19 | -0.82 |
| D101N | -0.201 | -0.0138 |
| D101K | 0.0609 | 0.803 |
| D101Y | 0.239 | 1.05 |
| D101A | -0.221 | -0.578 |
| D101F | -0.332 | 0.0209 |
| D101I | -0.248 | -0.191 |
| D101W | 0.326 | -0.257 |

| Variant | scaled log2 fold change [1] | scaled log2 fold change [2] |
| --- | --- | --- |
| F103H | 0.673 | 1.17 |
| F103D | 1.07 | 0.779 |
| F103W | 0.392 | -1.07 |
| F103Q | 0.935 | 1.02 |
| F103R | 1.09 | 1.06 |
| F103M | 0.347 | 0.516 |
| F103S | 0.912 | 0.923 |
| F103N | 1.06 | 1.03 |
| F103P | 1.14 | 1.17 |
| F103T | 1.16 | 0.355 |
| F103I | 0.186 | 0.171 |
| F103E | 0.983 | 0.679 |
| F103C | 0.693 | 0.536 |
| F103K | 1.2 | 1.14 |
| F103V | 0.282 | -0.441 |
| F103Y | 0.192 | -0.0547 |
| F103G | 1.04 | 2.28 |
| F103A | 0.92 | 0.527 |
| F103L | 0.27 | 0.542 |
| A105C | 0.134 | -0.333 |
| A105H | -1.17 | -0.265 |
| A105V | -0.318 | – |
| A105T | -1.22 | – |
| A105I | -0.149 | -0.181 |

| Variant | scaled log2 fold change [1] | scaled log2 fold change [2] |
| --- | --- | --- |
| A105Y | -0.576 | 0.955 |
| A105Q | -0.126 | 0.295 |
| A105L | -0.395 | 0.791 |
| A105W | -0.156 | 0.135 |
| A105P | 0.895 | 0.503 |
| A105K | 0.238 | 0.106 |
| A105S | -0.302 | 0.253 |
| A105G | -0.0984 | -0.152 |
| A105E | 0.163 | -0.502 |
| A105N | -0.246 | 0.204 |
| A105R | 0.523 | -0.155 |
| A105D | 0.0439 | 0.0751 |
| A105F | 0.0682 | 0.146 |
| A105M | -0.336 | 0.677 |
| G102S | 0.293 | 0.861 |
| G102Y | 0.333 | -0.0235 |
| G102M | -0.196 | -0.665 |
| G102K | 0.473 | -0.277 |
| G102T | -0.0667 | 2.33 |
| G102W | 0.225 | 0.879 |
| G102Q | -0.0113 | 0.76 |
| G102I | 0.0866 | 0.0202 |
| G102D | -0.0623 | -0.526 |
| G102H | 0.0379 | 0.869 |

| Variant | scaled log2 fold change [1] | scaled log2 fold change [2] |
| --- | --- | --- |
| G102R | 0.164 | -1.7 |
| G102C | 0.0125 | 0.0278 |
| G102E | 0.427 | -0.163 |
| G102P | 0.0181 | -0.00988 |
| G102N | -0.336 | 0.807 |
| G102V | 0.298 | -0.174 |
| G102A | 0.0393 | -0.812 |
| G102F | -0.00949 | -0.289 |
| G102L | 0.0952 | -0.752 |
| I100G | -0.02 | 0.208 |
| I100E | 0.167 | 0.099 |
| I100S | 0.183 | 1.01 |
| I100M | -0.119 | -0.526 |
| I100L | -0.145 | 0.198 |
| I100W | 0.297 | -0.693 |
| I100Y | 0.0992 | -0.139 |
| I100F | -0.0589 | -0.586 |
| I100T | 0.138 | -0.631 |
| I100N | 0.181 | 0.295 |
| I100D | 0.409 | -0.663 |
| I100H | 0.0888 | -0.835 |
